Data published in publication doi:10.1101/2025.05.06.652354.

Tests used:
[1] = target: Clostridioides difficile transferase B component, CDTb(45-876), activated with trypsin (Clostridioides difficile) (UniProt O32739); test: SEC
[2] = target: Clostridioides difficile transferase B component, CDTb(45-876), activated with trypsin (Clostridioides difficile) (UniProt O32739); test: SDS-PAGE of SDS-resistant oligomers

Q: How did the stoichiometry N [1] turn out when “Clostridioides difficile transferase B component, CDTb(45-876), activated with trypsin (from UniProt O32739 45-876) (natural protein)” was run?
A: Its stoichiometry N is 7.

Q: And the fold oligomer formed with 2.5 M ethanol against water [2]?
A: The fold oligomer formed with 2.5 M ethanol against water was 7.5 fold.
